T1: σ^L 1-177 (Mycobacterium tuberculosis sigma factor L, Rv0735), N-term His-tag (Mycobacterium tuberculosis, UniProt P9WGH5 1-177)
T1 construct: range 1-177; also called SigL; Mtb σ^L; not shown: N-terminal His-tag from pET-Duet1 MCS1
T1 sequence: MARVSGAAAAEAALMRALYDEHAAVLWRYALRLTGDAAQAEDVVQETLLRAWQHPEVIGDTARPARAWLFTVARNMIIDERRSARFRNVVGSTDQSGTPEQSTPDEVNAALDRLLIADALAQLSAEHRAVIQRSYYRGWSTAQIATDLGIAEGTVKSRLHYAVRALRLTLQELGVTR

B1: holo-RslA 1-108 (Zn2+ bound N-terminal cytosolic domain of M. tuberculosis anti-σ^L factor RslA), N-term His-tag (other)
chain: MTMPLRGLGPPDDTGVREVSTGDDHHYAMWDAAYVLGALSAADRREFEAHLAGCPECRGAVTELCGVPALLSQLDRDEVAAISESAPTVVASGLSPELLPSLLAAVHR
modifications: Zn2+ bound in 1:1 stoichiometry (holo, reduced; three free cysteines)
notes: range 1-108; Immobilized on a CM5 chip for SPR; Self-associates into dimers and tetramers in solution; also called Mtb RslA; Rsl1A 1-108; not shown: N-terminal His-tag from pET-Duet1 MCS1
B2: σ^L2 domain of M. tuberculosis σ^L (N-term His-tag σ^L 1-95) (other)
chain: MARVSGAAAAEAALMRALYDEHAAVLWRYALRLTGDAAQAEDVVQETLLRAWQHPEVIGDTARPARAWLFTVARNMIIDERRSARFRNVVGSTDQ
notes: range 1-95; not shown: N-terminal His-tag from pET-Duet1 MCS1

Data set [1] concerns the molecule itself. Kind of data set: analytical gel filtration; dynamic light scattering. In general terms: SEC sorts molecules by how far they enter the pores of the column.
Data set [2] deals with T1, σ^L 1-177 (Mycobacterium tuberculosis …). Kind of data set: SPR (BIACORE 2000), RslA immobilized on CM5 chip, σ^L as analyte. Background: Surface plasmon resonance follows binding to a sensor surface in real time, without labels.
The target in data set [3] is B1. Kind of data set: SPR (BIACORE 2000), RslA immobilized on CM5 chip, σ^L2 as analyte.

Broadly, the Kd is a measure of binding affinity in units of concentration.

On to B1, for which the binding result in data set [1] is “binds”. Moreover, in data set [2], the Kd is around 20 nM.
As for B2, in data set [3], the Kd is around 2000 nM and the “fold reduction in affinity against intact σ^L” value was around 100 fold.

Values taken from patent publication US20110021367A1 (INDIAN INSTITUTE OF SCIENCE, published 2011).
